Test results from patent US20250152742A1, “COMPOSITIONS AND METHODS FOR NEUROLOGICAL DISEASES” (Trames Bio, Inc., priority 2022, published 2025).

Test system: engineered chimeric receptor SEQ ID NO: 33 and its mutants (human α7-nAChR ligand binding domain / human GlyRα1 ion pore domain) in Lenti-X 293T cells
Test: YFP fluorescence quenching anion reporter plate reader assay (percent quench, EC50)
Format: cell-based
Conditions: for YFP fluorescence quenching using CNL001 (percent quench): receptor named in row; for YFP fluorescence quenching using Varenicline, 3 nM var: ligand Varenicline 3 nM; for YFP fluorescence quenching using Varenicline, 30 nM var: ligand Varenicline 30 nM; for YFP fluorescence quenching using Varenicline, 300 nM var: ligand Varenicline 300 nM; for YFP fluorescence quenching using Varenicline, 500 nM var: ligand Varenicline 500 nM; for YFP fluorescence quenching using Varenicline, 1 uM var: ligand Varenicline 1 uM
In short: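 Percent quench compares mean YFP signal over the final 10 s with the 15 s baseline before ligand, added in iodide-containing extracellular solution (pH 7.2). Cells were LX293T carrying a YFP anion reporter, transiently transfected with the channel construct; plates were preincubated 30 min at 37 °C.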

B1: CODA1027: engineered receptor: R101F, L131D in SEQ ID NO: 33 (protein)
chain: MRCSPGGVWLALAASLLHVSLQGEFQRKLYKELVKNYNPLERPVANDSQPLTVYFSLSLLQIMDVDEKNQVLTTNIWLQMSWTDHYLQWNVSEYPGVKTVFFPDGQIWKPDILLYNSADERFDATFHTNVDVNSSGHCQYLPPGIFKSSCPMDLKNFPMDVQTCKLKFGSWSYGGWSLDLQMQEADISGYIPNGEWDLVGIPGKRSERFYECCKEPYPDVTFTVTMRRRMGYYLIQMYIPSLLIVILSWISFWINMDAAPARVGLGITTVLTMTTQSSGSRASLPKVSYVKAIDIWMAVCLLFVFSALLEYAAVNFVSRQHKELLRFRRKRRHHKSPMLNLFQEDEAGEGRFNFSAYGMGPACLQAKDGISVKGANNSNTTNPPPAPSKSPEEMRKLFIQRAKKIDKISRIGFPMAFLIFNMFYWIIYKIVRREDVHNQ
modifications: synthetic sequence of chimeric LGIC
YFP fluorescence quenching using CNL001 (percent quench) (1 nM CNL001, first column so headed): 24.049%
YFP fluorescence quenching using CNL001 (percent quench) (1 nM CNL001, second column so headed): 36.755%
YFP fluorescence quenching using TC-5619/Bradanicline (percent quench) (1 nM brd (TC-5619/Bradanicline)): −10.07%
YFP fluorescence quenching using TC-5619/Bradanicline (percent quench) (3 nM brd (TC-5619/Bradanicline)): −0.8%
YFP fluorescence quenching using CNL001 (percent quench) (10 nM CNL001, first column so headed): 52.927%
YFP fluorescence quenching using CNL001 (percent quench) (10 nM CNL001, second column so headed): 61.449%
YFP fluorescence quenching using TC-5619/Bradanicline (percent quench) (10 nM brd (TC-5619/Bradanicline)): 1.74%
YFP fluorescence quenching using TC-6683 (percent quench) (30 nM TC-6683): 1.189%
YFP fluorescence quenching using TC-5619/Bradanicline (percent quench) (30 nM brd (TC-5619/Bradanicline)): 53.95%
YFP fluorescence quenching using CNL001 (percent quench) (50 nM CNL001, first column so headed): 67.308%
YFP fluorescence quenching using CNL001 (percent quench) (50 nM CNL001, second column so headed): 68.77%
YFP fluorescence quenching using ABT-126 (percent quench) (50 nM abt (ABT-126)): −11.89%
YFP fluorescence quenching using CNL001 (percent quench) (100 nM CNL001, first column so headed): 69.049%
YFP fluorescence quenching using CNL001 (percent quench) (100 nM CNL001, second column so headed): 71.613%
YFP fluorescence quenching (percent quench) (100 nM CNL002): 7.75%
YFP fluorescence quenching using ABT-126 (percent quench) (100 nM abt (ABT-126)): −16.07%
YFP fluorescence quenching using AZD-0328 (percent quench) (100 nM azd0328): −4.76%
YFP fluorescence quenching using TC-6683 (percent quench) (300 nM TC-6683): 0.939%
YFP fluorescence quenching using ABT-126 (percent quench) (300 nM abt (ABT-126)): −11.21%
YFP fluorescence quenching using AZD-0328 (percent quench) (300 nM azd0328): −7.52%
YFP fluorescence quenching using TC-5619/Bradanicline (percent quench) (300 nM brd (TC-5619/Bradanicline)): 76.74%
YFP fluorescence quenching using CNL001 (percent quench) (1 uM CNL001, first column so headed): 71.811%
YFP fluorescence quenching using CNL001 (percent quench) (1 uM CNL001, second column so headed): 69.907%
YFP fluorescence quenching (percent quench) (1 uM CNL002): 61.97%
YFP fluorescence quenching using ABT-126 (percent quench) (1 uM abt (ABT-126)): −9.38%
YFP fluorescence quenching using TC-6683 (percent quench) (3 uM TC-6683): 1.327%
YFP fluorescence quenching (percent quench) (10 uM ach (acetylcholine)): −1.62%
YFP fluorescence quenching (percent quench) (30 uM CNL002): 65.77%
YFP fluorescence quenching using TC-6683 (percent quench) (30 uM TC-6683): −0.845%
YFP fluorescence quenching using AZD-0328 (percent quench) (30 uM azd0328): 74.9%
YFP fluorescence quenching (percent quench) (50 uM ach (acetylcholine)): −1.6%
YFP fluorescence quenching using TC-6683 (percent quench) (100 uM TC-6683): −3.136%
YFP fluorescence quenching (percent quench) (100 uM ach (acetylcholine)): −2.62%
YFP fluorescence quenching (percent quench) (300 uM ach (acetylcholine)): −6.12%
YFP fluorescence quenching (percent quench) (500 uM ach (acetylcholine)): −7.71%
YFP fluorescence quenching (percent quench) (1 mM ach (acetylcholine)): −5.73%
YFP fluorescence quenching (percent quench) (3 mM ach (acetylcholine)): 33.69%
YFP fluorescence quenching using Facinicline, 30 nM fac (ligand Facinicline 30 nM): −10.05
YFP fluorescence quenching using Facinicline, 300 nM fac (ligand Facinicline 300 nM): −12.54
YFP fluorescence quenching using Facinicline, 30 uM fac (ligand Facinicline 30 uM): 70.96
YFP fluorescence quenching using TC-6987, 1 uM tc6987 (ligand TC-6987 1 uM): 0.88
YFP fluorescence quenching using TC-6987, 10 uM tc6987 (ligand TC-6987 10 uM): 56.27
YFP fluorescence quenching using TC-6987, 500 uM tc6987 (ligand TC-6987 500 uM): 71.3
YFP fluorescence quenching using Varenicline, 3 nM var (first column): −3.367
YFP fluorescence quenching using Varenicline, 3 nM var (second column): −0.431
YFP fluorescence quenching using Varenicline, 30 nM var (first column): −0.761
YFP fluorescence quenching using Varenicline, 30 nM var (second column): 2.989
YFP fluorescence quenching using Varenicline, 300 nM var (first column): 2.966
YFP fluorescence quenching using Varenicline, 300 nM var (second column): 10.211
YFP fluorescence quenching using Varenicline, 500 nM var (first column): 15.278
YFP fluorescence quenching using Varenicline, 500 nM var (second column): 20.84
YFP fluorescence quenching using Varenicline, 1 uM var (first column): 37.104
YFP fluorescence quenching using Varenicline, 1 uM var (second column): 42.439
